Measured values reported in paper PMC11213338.

Key:
[1] = target: γb protein of BSMV, expressed by the virus; assay: immunogold labeling with γb antibody, TEM; details: virions purified from infected N. benthamiana leaves at 5 dpi; n = 13; parent: est. 48; read off a plot
GST-γb = assay: GST pull-down; details: scale: relative anti-His band intensity
CP-His = CP-His (UniProt P04866); assay: GST pull-down; details: scale: relative anti-His band intensity
[2] = target: BSMV virions (barley stripe mosaic virus (ND18 strain)); assay: immunogold labelling of purified virions (TEM); virions purified from infected leaves, adsorbed onto nickel grids, rabbit antiserum against the CRP 1:100 in BL buffer 2 h at room temperature, goat anti-rabbit 10 nm gold, TEM at 80 kV; also after 0.02 mM EDTA at 4°C for 12 h (fewer gold particles)
BSMV virions = assay: immunogold labeling with γb antibody, TEM; details: virions purified from infected N. benthamiana leaves at 5 dpi; n = 13; parent: est. 48; read off a plot
[3] = target: γb-GFP-His (barley stripe mosaic virus (ND18 strain)); assay: MST; γb protein with 5 μM Zn^2+ in the buffer held constant, CP protein added as ligand; Monolith NT.115
[4] = target: γb-GFP-His (barley stripe mosaic virus (ND18 strain)); assay: MST; γb-GFP-His held constant (10 μM), CP-His titrated from 20 μM; PBS with 0.1% Tween 20, 25°C, 20% LED-power, 40% MST-power, Monolith NT.115; no Zn^2+ added
[5] = target: γb-GFP-His (barley stripe mosaic virus (ND18 strain)); assay: as above; remark: listed apart in the source
[6] = target: GST-γb (barley stripe mosaic virus (ND18 strain)); assay: pull-down; GST pull-down: purified GST-tag protein with His-tag protein in 50 mM Tris-HCl pH 6.8, 500 mM NaCl, 1.5% glycerol, 0.6% Triton-X 100, 0.1% Tween 20, 3 h at 4°C; with or without 10 μg RNaseA, Zn^2+ 2-200 μM, 20 μM other divalent cations, or EDTA (200 μM in Fig 4D and 4E); blots with anti-GST or anti-His

## BSMV virions H13A
[1]
  response: 3%

## CP-His (from UniProt P04866) H13A
GST-γb; EDTA (200 μM), parent: 0.05
  response: 0.04
GST-γb; no EDTA, parent: 1.00
  response: 0.11

## GST-γb H85A
CP-His; EDTA (200 μM), parent: 0.20
  response: 0.23
CP-His; no EDTA, parent: 1.00
  response: 0.21

## γb protein of BSMV, expressed by the virus (natural protein)
[2]
  percent of virions labelled with gold particles (γb antibody): 50.9%

## γb protein of BSMV, expressed by the virus H85A
BSMV virions
  response: 8%

B1: CP-His (natural protein)
chain: MPNVSLTAKGGGHYIEDQWDTQVVEAGVFDDWWVHVEAWNKFLDNLRGINFSVASSRSQVAEYLAALDRDLPADVDRRFAGARGQIGSPNYLPAPKFFRLDKRTIAELTRLSRLTDQPHNNRDIELNRAKRATTNPSPPAQAPSENLTLRDVQPLKDSALHYQYVLIDLQSARLPVYTRKTFERELALEWIIPDAEEA
[3]
  Kd: 150 nM
[4]
  Kd: 460 nM
[5]
  Kd: 630 nM
[6]
  fold reduction of the pull-down with 200 μM EDTA: 5 fold
